# Measurements taken from patent US20120005127A1.
# Biological target: IL-1 receptor (human) (UniProt P14778)
# Assay: cell-based or functional assay
# Chain of UniProt P14778 (P14778 18-569): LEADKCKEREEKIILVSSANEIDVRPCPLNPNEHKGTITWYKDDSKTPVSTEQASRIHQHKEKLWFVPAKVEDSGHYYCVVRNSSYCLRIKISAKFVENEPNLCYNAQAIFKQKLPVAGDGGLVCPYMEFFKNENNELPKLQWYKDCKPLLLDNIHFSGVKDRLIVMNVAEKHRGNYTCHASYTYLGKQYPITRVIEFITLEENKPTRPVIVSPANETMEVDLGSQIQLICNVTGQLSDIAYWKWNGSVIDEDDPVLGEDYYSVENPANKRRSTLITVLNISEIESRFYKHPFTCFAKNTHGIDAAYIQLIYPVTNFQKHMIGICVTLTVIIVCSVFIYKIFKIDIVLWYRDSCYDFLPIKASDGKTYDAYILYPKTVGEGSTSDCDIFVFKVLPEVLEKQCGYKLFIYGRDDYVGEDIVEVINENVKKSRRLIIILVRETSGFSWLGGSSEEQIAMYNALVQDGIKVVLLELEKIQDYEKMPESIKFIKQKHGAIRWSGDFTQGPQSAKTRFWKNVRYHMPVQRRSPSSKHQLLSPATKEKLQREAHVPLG
substance,measurement,value
Kineret® (anakinra) (from UniProt P18510 26-177) (ligand),IC50 (pM): inhibition of IL-1β induced production of IL-8 in human whole blood,53.4 pM
